Assay [1] has as its target T1, Recombinant mutant human IL-21 (human, UniProt Q9HBE4 30-162, limits assumed).
T1 construct: also called IL-21 mutant; mutant human IL-21 protein
Nature of the assay: direct ELISA. How it is done:
(§1) Wells were blocked with 200 μL/well of Blocking Buffer (PBS-Tween plus 1% w/v bovine serum albumin (BSA)) for 1 hour, after which the plates were washed twice with Wash Buffer. Antibody dilutions were prepared in 5% fetal bovine serum (FBS)/Iscove's Modified Dulbecco's Media (IMDM) medium and adjusted to 1 μg/ml. […] Following 1 hour incubation at ambient temperature, the wells were aspirated and the plates washed twice as described above. Horseradish peroxidase (HRP) labeled Goat anti Mouse IgG, Fc specific or Goat anti Rat IgG, Fc specific, or Goat anti Human IgG, Fc specific (Jackson ImmunoResearch Laboratories, West Grove, Pa.) at a dilution of 1:5000 with 5% FBS/IMDM medium was then added to each well, 100 μL/well, and the plates incubated at ambient temperature for 1 hour. After removal of unbound HRP conjugated antibody, the plates were washed five times, 100 μL /well of tetra methyl benzidine (TMB) (BioFX Laboratories, Owings Mills, Md.) added to each well and the plates incubated for 3 minutes at ambient temperature. Color development was stopped by the addition of 100 μL /well of 450 nm TMB Stop Reagent (BioFX Laboratories, Owings Mills, Md.) and the absorbance values of the wells read on a Molecular Devices Spectra MAX 340 instrument at 450 nm.
On the technique in general: An ELISA detects its analyte on a solid surface through an enzyme-linked reagent.

The target of assay [2] is T2, Human IL-21 peptide #1 (pyr30-K50) (human, N-terminal pyroGlu).
T2 construct: coated on ELISA plates; also called Peptide 1 N-Term
T2 peptide: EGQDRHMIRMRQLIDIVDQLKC
Nature of the assay: direct ELISA. How it is done: as §1

Assay [3] has as its target T3, Human IL-21 peptide #2 (N54-C71) (human).
T3 peptide: NDLVPEFLPAPEDVETNC
Nature of the assay: direct ELISA. How it is done:
as §1

Assay [4] has as its target T4, Human IL-21 peptide #3 (N97-C122) (human).
T4 peptide: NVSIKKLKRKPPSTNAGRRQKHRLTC
Description: direct ELISA. On the procedure:
as §1

The target in assay [5] is T5, Human IL-21 peptide #4 (C125-S153) (human).
T5 construct: also called Peptide 4 C-Term
Nature of the assay: direct ELISA. On the procedure:
as §1

Assay [6] addresses T6, Hu IL-21 Peptide A1750 (conjugated to ovalbumin) (human, also: chemically conjugated to ovalbumin).
T6 construct: also called peptide #2 N54-C71 conjugated to ovalbumin
T6 peptide: NDLVPEFLPAPEDVETNC
Description: Western blot. On the procedure: (§2) For Western blots, the non-specific sites on the membranes were blocked with a buffer containing 20 mM Tris, pH 7.4, 0.5 mM EDTA, 0.5% IGEPAL CA-630, 150 mM NaCl, 0.25% gelatin, and 1% casein hydrolysate blocking solution (Western Blocking Reagent, Roche Diagnostics, Inc., Basel Switerzerland) (Blocking Buffer). The membranes were then incubated for 2 hrs at room temperature with purified monoclonal antibody (10 ng/ml or 100 ng/ml) in the Blocking Buffer followed by a 2 hr incubation with peroxidase conjugated donkey anti-human IgG (Jackson Laboratories, Bar Harbor, Me.). The membranes were washed 5 times with the Tris/EDTA/IGEPAL/NaCl/gelatin Blocking buffer which lacked the casein hydrolysate and developed with SUPERSIGNAL™ DuraWest Luminol/Enhancer/Peroxidase Solution (Pierce, Rockford, Ill.) for chemoluminescence detection. The blots were visualized using X-ray film based standard methods.

Assay [7] deals with T7, Hu IL-21 Peptide A1751 (conjugated to ovalbumin) (human, conjugated to ovalbumin).
T7 construct: also called peptide #3 N97-C122 conjugated to ovalbumin
T7 peptide: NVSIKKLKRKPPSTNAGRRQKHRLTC
Description: Western blot. On the procedure: as §2
(In general: A western blot detects proteins with antibodies after separation by electrophoresis.)

Assay [8] addresses T8, Hu IL-21 Peptide A1752 (conjugated to ovalbumin) (human, conjugated to ovalbumin).
T8 construct: also called peptide #4 C125-S153 conjugated to ovalbumin
Description: Western blot. On the procedure:
as §2

In assay [9] the target is Recombinant murine IL-21 (mouse, UniProt Q9ES17 18-146). Nature of the assay: Western blot. On the procedure:
as §2

In assay [10] the target is T9, Recombinant human IL-2 (human, UniProt P60568 21-153).
T9 construct: also called Hu IL-2
Description: Western blot.

Assay [11] has as its target T10, Recombinant human IL-4 (human, UniProt P05112 25-153).
T10 construct: also called Hu IL-4
T10 sequence (looked up): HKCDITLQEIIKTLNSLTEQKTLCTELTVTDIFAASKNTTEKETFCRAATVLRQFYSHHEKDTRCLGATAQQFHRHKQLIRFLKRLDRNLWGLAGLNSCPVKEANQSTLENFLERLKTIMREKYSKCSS
Description: Western blot.

In assay [12] the target is T11, Recombinant human IL-7 (human, UniProt P13232 26-177).
T11 construct: also called Hu IL-7
T11 sequence (looked up): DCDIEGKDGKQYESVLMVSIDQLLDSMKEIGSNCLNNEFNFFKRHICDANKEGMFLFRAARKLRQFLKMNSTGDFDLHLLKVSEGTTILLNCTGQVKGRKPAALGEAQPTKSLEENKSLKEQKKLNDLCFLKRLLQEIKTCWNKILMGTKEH
Description: Western blot.

The target in assay [13] is T12, Recombinant human IL-9 (human, UniProt P15248 19-144).
T12 construct: also called Hu IL-9
Description: Western blot.

Assay [14] deals with T13, Recombinant human IL-15 (human, UniProt P40933 49-162).
T13 construct: also called Hu IL-15
Description: Western blot.

The target of assay [15] is T14, Recombinant human IL-21 (human, UniProt Q9HBE4 30-162). Nature of the assay: cell-based or functional assay.
For assay [16], the target named is Recombinant cynomolgus IL-21 (cynomolgus monkey, UniProt Q9HBE4 30-162 (human entry), limits assumed). Description: cell-based or functional assay.
The target of assay [17] is T14, Recombinant human IL-21. Description: cell-based or functional assay. This is another data set of the same source.
The target of assay [18] is T14, Recombinant human IL-21. Nature of the assay: cell-based or functional assay. This is another data set of the same source.

Results on 1 molecule are retold here after patent US20100041873A1 (ZymoGenetics, published 2010).

“And” between values parts separate entries of the source, which are not always exact repeats. Identical values can stand only once. No end group written: not given here.

T14 sequence (Q9HBE4 30-162 limits assumed): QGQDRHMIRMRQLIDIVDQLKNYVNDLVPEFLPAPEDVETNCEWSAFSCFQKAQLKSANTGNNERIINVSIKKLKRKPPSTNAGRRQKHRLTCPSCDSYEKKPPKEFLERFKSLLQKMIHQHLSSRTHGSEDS
Sequence of Recombinant cynomolgus IL-21 (Q9HBE4 other isoform, or with tags, fused parts or gaps limits assumed): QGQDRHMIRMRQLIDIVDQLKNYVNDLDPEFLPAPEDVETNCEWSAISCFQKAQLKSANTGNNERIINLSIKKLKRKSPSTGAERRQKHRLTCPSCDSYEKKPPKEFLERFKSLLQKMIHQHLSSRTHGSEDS
T1 sequence (Q9HBE4 other isoform, or with tags, fused parts or gaps mutant limits assumed): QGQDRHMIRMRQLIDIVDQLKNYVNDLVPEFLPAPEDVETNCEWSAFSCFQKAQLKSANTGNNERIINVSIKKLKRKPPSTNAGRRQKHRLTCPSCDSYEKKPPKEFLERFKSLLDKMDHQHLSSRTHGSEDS
T8 sequence (peptide, as listed by the source): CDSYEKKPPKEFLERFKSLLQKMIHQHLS
T12 sequence (P15248 19-144 limits assumed): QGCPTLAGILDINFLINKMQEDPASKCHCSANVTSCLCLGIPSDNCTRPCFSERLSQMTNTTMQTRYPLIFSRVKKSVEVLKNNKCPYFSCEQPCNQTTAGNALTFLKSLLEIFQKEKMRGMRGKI
T9 sequence (P60568 21-153 limits assumed): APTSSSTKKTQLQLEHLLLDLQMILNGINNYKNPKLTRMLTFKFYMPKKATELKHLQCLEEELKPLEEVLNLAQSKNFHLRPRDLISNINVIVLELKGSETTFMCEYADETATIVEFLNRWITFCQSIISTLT
T13 sequence (P40933 49-162 limits assumed): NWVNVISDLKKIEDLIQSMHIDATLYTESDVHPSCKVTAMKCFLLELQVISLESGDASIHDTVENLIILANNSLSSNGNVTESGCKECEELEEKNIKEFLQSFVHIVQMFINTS

B1: Human anti-human IL-21 monoclonal antibody 366.328.10 (antibody, V domains shown)
VH: EVQLVESGGGLVKPGGSLRLSCAASGFIFSSYSMNWVRQAPGKGLEWVSSITSGSYYIHYADSVKGRFTISRDNAKNSLYLQMNSLRAEDTAVYYCVRERGWGYYGMDVWGQGTTVTVSS
VL: AIQLTQSPSSLSASVGDRVTITCRASQDIDSALAWYQQKPGKAPKILIHDASSLESGVPSRFSGSGSGTDFTLTISSLQPEDFATYYCQQFNSYPYTFGQGTKLEIK
notes: Hybridoma antibody, ATCC PTA-8789; isotype printed as IgG
On to B1, for which the binding result in [1] is on record as “binds”; in assay [2], “no binding (tested: 1 ug/ml mAb)”; in [3], “no binding (tested: 1 ug/ml mAb)”; in assay [4], “no binding (tested: 1 ug/ml mAb)”; in assay [5] it was “no binding (tested: 1 ug/ml mAb)”; in [6], “no binding (tested: 10 or 100 ng/ml mAb)”. Moreover, the binding result in [7] is “no binding (tested: 10 or 100 ng/ml mAb)”; in [8] it was “no binding (tested: 10 or 100 ng/ml mAb)”; in assay [9], “no binding (tested: 10 or 100 ng/ml mAb)”; in assay [10] it was “no binding”; in assay [11], “no binding”; in assay [12] it was “no binding”. In addition, the binding result in assay [13] and in [14] was “no binding” each time. Moreover, in [15], the “IC50 (pM), STAT3-phosphorylation assay, Expt #1” value is 210 pM. Further, the “Cyno IL-21 IC50 ([cIL-21] = 100 pM), STAT-Luciferase assay” value in assay [16] was 15 ng/mL and 100 pM. In [17], the “IC50 (nM), B cell proliferation assay (anti-CD40 + 3.21 nM IL-21)” value worked out at 0.71 nM. The “% IgD-low, CD138+ Plasma Cells, antagonist:ligand 0.16:1” value in [18] worked out at 52.1%. Further, in assay [18], the “% IgD-low, CD138+ Plasma Cells, antagonist:ligand 0.6:1” value was 41.4%. The “% IgD-low, CD138+ Plasma Cells, antagonist:ligand 2.5:1” value in assay [18] was 20.2%. Also, the “% IgD-low, CD138+ Plasma Cells, antagonist:ligand 10:1” value in assay [18] came to 15.4%.
